Measured values taken from publication PMC11857385, “Parametric Cyclic Voltammetric Analysis of an Electrochemical Aptasensor for Staphylococcus aureus Iron-Regulated Surface Determinant Protein A Detection”.

Biological target: T1, IsdA (iron-regulated surface determinant protein A) (Staphylococcus aureus, UniProt A6QG31 47-316)
T1 sequence: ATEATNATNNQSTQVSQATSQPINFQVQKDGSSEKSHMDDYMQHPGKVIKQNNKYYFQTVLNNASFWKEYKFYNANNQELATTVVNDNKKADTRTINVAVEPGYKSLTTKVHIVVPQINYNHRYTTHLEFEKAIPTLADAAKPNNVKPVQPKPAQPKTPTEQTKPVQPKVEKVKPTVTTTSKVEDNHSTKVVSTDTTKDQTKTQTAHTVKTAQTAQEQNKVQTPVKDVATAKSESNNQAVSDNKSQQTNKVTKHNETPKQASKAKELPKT
Test: cyclic voltammetry and EIS; pH 7.5, 25 °C, 5 mM [Fe(CN)6]3-/4-, 0.1 M KCl; Aptamer (5 µM, 4 h) immobilized on SPCE/AuNPs, 2-MCE block; CV in 5 mM [Fe(CN)6]3-/4-, 0.1 M KCl, pH 7.5 (also 4.5, 10.5), 25 °C (also 4, 37 °C); zeta potential in water, room temperature
Settings: label: FAM dye applied in imaging; 1 strand

Binder: GCGCACGCGUGUGUAGUACACACGAUCGCGCGCACAAUAU (ssRNA, amine for coupling to AuNP carboxyl groups implied; position not stated) [anti-IsdA aptamer]
- binding result: binds
